{"source": "paper PMC4949324", "key": {"C1 R1092W (ZF10-13)": {"target": "T1, C1 R1092W (ZF10-13) (mouse, UniProt A2A5K6 845-1337, R1092W)", "T1 sequence": "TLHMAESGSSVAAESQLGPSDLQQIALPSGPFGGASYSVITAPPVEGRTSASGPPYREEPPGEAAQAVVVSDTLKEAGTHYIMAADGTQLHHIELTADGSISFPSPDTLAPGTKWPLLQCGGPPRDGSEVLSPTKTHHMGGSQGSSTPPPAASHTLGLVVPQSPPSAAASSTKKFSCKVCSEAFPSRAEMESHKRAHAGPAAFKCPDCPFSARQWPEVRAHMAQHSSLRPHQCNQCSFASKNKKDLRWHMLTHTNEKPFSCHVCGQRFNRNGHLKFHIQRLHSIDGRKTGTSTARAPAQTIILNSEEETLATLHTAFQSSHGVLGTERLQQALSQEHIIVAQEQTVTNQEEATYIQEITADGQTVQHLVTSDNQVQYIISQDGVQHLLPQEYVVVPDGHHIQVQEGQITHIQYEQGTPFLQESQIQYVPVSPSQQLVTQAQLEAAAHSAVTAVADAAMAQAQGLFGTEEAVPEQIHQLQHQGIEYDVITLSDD", "experiment": "quantitative EMSA"}, "C1 WT (ZF10-13)": {"target": "T2, C1 WT (ZF10-13) (mouse, UniProt A2A5K6 845-1337)", "T2 sequence": "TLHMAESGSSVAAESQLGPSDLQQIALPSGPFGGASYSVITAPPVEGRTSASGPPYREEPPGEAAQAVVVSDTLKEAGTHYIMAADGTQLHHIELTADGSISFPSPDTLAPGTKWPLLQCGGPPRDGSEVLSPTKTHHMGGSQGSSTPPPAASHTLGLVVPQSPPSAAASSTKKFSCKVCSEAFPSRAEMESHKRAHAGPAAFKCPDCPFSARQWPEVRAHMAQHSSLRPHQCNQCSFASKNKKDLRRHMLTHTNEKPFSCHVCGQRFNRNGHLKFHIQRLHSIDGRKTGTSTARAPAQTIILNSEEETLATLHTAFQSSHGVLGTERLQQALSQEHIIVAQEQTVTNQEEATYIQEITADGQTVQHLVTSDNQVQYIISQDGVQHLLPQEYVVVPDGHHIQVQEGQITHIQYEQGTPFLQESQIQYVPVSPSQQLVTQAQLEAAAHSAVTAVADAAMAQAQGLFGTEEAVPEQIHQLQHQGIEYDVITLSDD", "experiment": "quantitative EMSA"}}, "data": [{"binder": "A2 (dsDNA) DNA 1: AGTCCGACTCAGGACCCCGACCAAGCTG DNA 2: CAGCTTGGTCGGGGTCCTGAGTCGGACT", "values": [{"measurement": "Kd", "setting": "C1 R1092W (ZF10-13)", "result": "1410 ± 117", "unit": "nM"}, {"measurement": "Kd", "setting": "C1 WT (ZF10-13)", "result": "73.4 ± 7.1", "unit": "nM"}]}]}
